Reference: patent publication US7863432 (FORSCHUNGSVERBUND BERLIN E V, dated 2011)

Target: T1, RIIα-YFP fusion protein (regulatory subunit RIIα of human protein kinase A fused to yellow-fluorescent … (human, UniProt P13861 2-404))
T1 construct: whole, on cells; Expressed inside transfected HEK293 or CD8 cells (diffuse, cytosolic); also called regulatory RIIα subunit of PKA; not shown: yellow-fluorescent protein (YFP) encoded by vector pEYFP (BD Biosciences Clontech)
Test: FRET in two co-transfected HEK293 cells, time 0 min before peptide addition
Description: FRET measurements were performed 24-48 hours after transfection, using an epifluorescence microscope (Axiovert 200M, Carl Zeiss, Jena, Germany). The data were stored using the Openlab 2.25 software (Improvision, Coventry GB). Fluorescence was excited at a wavelength of 425 nm for CFP and 488 nm for YFP. […] Non-specific background fluorescence was determined in a region with no cells and subtracted.
This peptide inhibits the interaction between AKAP and regulatory PKA subunits in general (Klussmann et al., J. Biol. Chem. 274, 4934-4938, 1999; see schematic diagram in FIGS. 5A and B).

T1 sequence (P13861 2-404): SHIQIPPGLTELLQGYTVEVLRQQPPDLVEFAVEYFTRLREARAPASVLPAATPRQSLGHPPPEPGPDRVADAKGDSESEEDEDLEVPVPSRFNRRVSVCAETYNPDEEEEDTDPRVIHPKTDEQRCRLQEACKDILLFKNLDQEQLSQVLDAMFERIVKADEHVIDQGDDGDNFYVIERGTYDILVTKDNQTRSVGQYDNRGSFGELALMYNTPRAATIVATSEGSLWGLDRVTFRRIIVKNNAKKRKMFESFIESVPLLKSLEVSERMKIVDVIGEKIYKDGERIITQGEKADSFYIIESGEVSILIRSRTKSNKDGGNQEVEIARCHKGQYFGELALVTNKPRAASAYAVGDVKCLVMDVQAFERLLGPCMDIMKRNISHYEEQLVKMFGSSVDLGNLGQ

B1: AKAP18δ-CFP fusion protein (other)
chain: MERPAAGEIDANKCDHLSRGEEGTGDLETSPVGSLADLPFAAVDIQDDCGLPDVPQGNVPQGNPKRSKENRGDRNDHVKKRKKAKKDYQPNYFLSIPITNKKITAGIKVLQNSILRQDNRLTKAMVGDGSFHITLLVMQLLNEDEVNIGTDALLELKPFVEEILEGKHLTLPFHGIGTFQGQVGFVKLADGDHVSALLEIAETAKRTFQEKGILAGESRTFKPHLTFMKLSKAPMLWKKGVRKIEPGLYEQFIDHRFGEEILYQIDLCSMLKKKQSNGYYHCESSIVIGEKDRKEPEDAELVRLSKRLVENAVLKAVQQYLEETQNKKQPGEGNSVKAEEGDRNGDGSDNNRK
notes: Expressed inside transfected HEK293 or CD8 cells (diffuse, cytosolic); also called AKAP186; AKAP188; not shown: cyan-fluorescent protein (CFP) encoded by vector pECFP (BD Biosciences Clontech)
  535/480 ratio (FRET signal) prior to addition of S-Ht31: ~1.3
